Data as given in US20260234240A1 (published 2026).

How the values were obtained:
hIL10R1 = assay: kinetic binding assay
MK1966 = assay: SPR
MK1966 (benchmark) = assay: kinetic binding assay
cynoIL10 = assay: kinetic binding assay
Cyno IL10 = assay: SPR
[1] = target: T1, IL-10 (Accession no. P22301) (UniProt P22301 19-178); assay: SPR
T1 chain: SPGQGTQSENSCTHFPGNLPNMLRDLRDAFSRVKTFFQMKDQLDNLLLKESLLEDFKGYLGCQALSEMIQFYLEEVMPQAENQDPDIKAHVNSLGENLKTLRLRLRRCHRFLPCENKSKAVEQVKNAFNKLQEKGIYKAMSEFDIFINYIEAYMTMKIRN

[2] = target: T1, IL-10 (Accession no. P22301); assay: kinetic binding assay

B1: αIL-10R candidate (antibody, V domains shown)
VH: QVQLQESGPGLVKPSETLSLTCTVSGGSISSDYWSWIRQPAGKRLEWIGRIFTSGSTNYNPSLKSRVTMSVDTSKNQFSLKLNSLTAADTAVYYCARDDWYFDLWGRGTLVTVSS
VL: EIVMTQSPATLSVSPGERATLSCRASQSVSNNLAWYQQKPGQAPRFLIYGASTRATGMPARFSGSGSGTEFTLTISSLQSEDFAVYFCQQYNEWPWTFGQGTKVEIK
- Kd (hIL10R1): 0.117 nM

B2: Human IL10 (ligand)
chain: T1 chain
- Kd (MK1966): 0.14 nM

B3: hIL10 (ligand)
chain: T1 chain
- Kd (MK1966 (benchmark)): 0.0266 nM

B4: h49G08 (antibody, V domains shown)
VH: EVQLVESGGGLVQPGGSLRLSCAASGFTFSDYYMYWVRQAPGKGLEWVSTISDGGSYTYYPDSVKGRFTISRDNAKNNLYLQMNSLRAEDTAVYYCARGYYYGLFTYWGQGTLVTVSS
VL: DIQMTQSPSSLSASVGDRVTITCRASQDVNTGLNWYQQKPGQAPKLLIYWASSRQSGVPSRFSGSGSGTDFTLTISSLQPEDFATYYCQQHYSTPYTFGQGTKLEIK
- Kd (cynoIL10): < 0.001 nM

B5: hu49G08 (antibody, V domains shown)
VH: B4 VH
VL: B4 VL
- Kd (Cyno IL10): 0.11 nM

B6: 49G08_H1L2 (antibody, V domains shown)
VH: B4 VH
VL: B4 VL
- Kd [1]: 0.16 nM
- Kd [2]: 0.0199 nM
